According to patent US20260209301A1, “Galanin-2 Receptor Agonists” (LIFEARC, priority 2022, published 2026):

What was measured:
GALR2 [1] = target: T1, GALR2 (Homo sapiens, UniProt O43603); assay: β-arrestin recruitment, PathHunter CHO-K1 GALR2 cells; format: cell-based; conditions: Table 2; mean +/− standard deviation, n ≥ 3
T1 sequence (O43603 1-387): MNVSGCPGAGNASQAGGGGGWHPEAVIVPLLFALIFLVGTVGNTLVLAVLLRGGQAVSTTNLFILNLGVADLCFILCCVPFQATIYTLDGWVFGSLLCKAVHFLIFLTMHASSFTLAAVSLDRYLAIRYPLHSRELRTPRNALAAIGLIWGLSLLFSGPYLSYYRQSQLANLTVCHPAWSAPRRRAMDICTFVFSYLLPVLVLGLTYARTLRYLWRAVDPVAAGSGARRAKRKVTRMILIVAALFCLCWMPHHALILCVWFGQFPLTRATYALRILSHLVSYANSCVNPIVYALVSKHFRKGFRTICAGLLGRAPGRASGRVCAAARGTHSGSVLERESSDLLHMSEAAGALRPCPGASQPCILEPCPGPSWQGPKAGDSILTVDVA
Experimental: Ligands were prepared at half log dilutions using cell plating reagent 2. 5 μl of each ligand was added to cells and plates incubated at 37° C. for 90 minutes. DiscoverX PathHunter detection kit (DiscoverX, USA) was added to cells as described my manufacturer's guidelines and plates incubated for 60 minutes at room temperature in the dark. Chemiluminescent signal was measured using the PHERAstar FS (BMG, Germany).

GALR3 = target: T2, GALR3 (Homo sapiens, UniProt O60755); assay: Luciferase reporter gene assay (SRE), HEK293 Gqi cells; format: cell-based
T2 construct: expressed in transfected cells; host or cells: genetically modified HEK293 Gqi cells, transient
T2 sequence (O60755 1-368): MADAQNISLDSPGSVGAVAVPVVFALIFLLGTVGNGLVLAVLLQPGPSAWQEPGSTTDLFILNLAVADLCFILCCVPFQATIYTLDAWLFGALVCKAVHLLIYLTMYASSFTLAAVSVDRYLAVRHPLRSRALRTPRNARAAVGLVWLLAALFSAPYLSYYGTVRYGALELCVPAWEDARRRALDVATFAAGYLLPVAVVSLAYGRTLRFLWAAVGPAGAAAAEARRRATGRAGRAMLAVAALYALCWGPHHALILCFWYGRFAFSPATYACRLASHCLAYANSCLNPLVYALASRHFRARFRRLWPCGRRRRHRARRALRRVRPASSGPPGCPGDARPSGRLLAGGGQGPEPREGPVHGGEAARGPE
Experimental: GalR3 activity was measured, alongside GalR1 and GalR2, using a luciferase reporter assay. A reporter plasmid and a receptor plasmid, were transiently transfected into the target cell line. The reporter plasmid contains a serum response element (SRE) or a nuclear factor of activated T-cells response element (NFAT-RE) which is coupled to a luciferase transcript and induces expression of the luciferase upon a specific G-protein (Gai uses SRE; Gaq uses NFAT-RE) activation. The target receptor is constantly expressed after cell transfection. For GALR1 and GALR3 screening, genetically modified HEK293 Gqi cells were transiently transfected with the SRE reporter and the receptor (GALR1 and GALR3) plasmids. For GALR2 screening, HEK293 cells were transiently transfected with the NFAT-RE reporter and the receptor (GALR2) plasmid. […] The luciferase activity was analyzed with the Bright-Glo Luciferase Assay (Promega) in an EnSpire plate reader.
Therefore, to measure activity at the GalR3 receptor a reporter gene assay was used. In this system MAP/ERK signalling is used to measure receptor activity. Activation of Gqi coupled receptors leads to downstream activation of ERK1/2. The activated ERK translocates to the nucleus where it phosphorylates and activates transcription factors, which lead to the binding of Serum response element (SRE). In this assay SRE activation induces expression of a luciferase reporter gene. […] To ensure this effect was not an artifact of the reporter gene assay, GalR1 and GalR2 reporter assays (using SRE and NFAT-RE respectively) were also run.

cynomolgus GalR2 = assay: Calcium assay at orthologue receptor; format: cell-based, Macaca fascicularis; conditions: Table 8; Calcium assays; mean +/− standard deviation
Source text: (§1) These species were chosen as they represent potential downstream in vivo models to be used. Within native galanin amino acid residues 1-15 are conserved across species, we would therefore expect the Gal FC fusions comprising amino acids 2 to 13 to retain GalR2 activity in these species. Calcium imaging was used to define receptor activity.

mouse GalR2 = target: T3, mouse GalR2 (Mus musculus, UniProt O88854); assay: Calcium assay at orthologue receptor; format: cell-based; conditions: Table 8; Calcium assays; mean +/− standard deviation
T3 sequence (O88854 1-371): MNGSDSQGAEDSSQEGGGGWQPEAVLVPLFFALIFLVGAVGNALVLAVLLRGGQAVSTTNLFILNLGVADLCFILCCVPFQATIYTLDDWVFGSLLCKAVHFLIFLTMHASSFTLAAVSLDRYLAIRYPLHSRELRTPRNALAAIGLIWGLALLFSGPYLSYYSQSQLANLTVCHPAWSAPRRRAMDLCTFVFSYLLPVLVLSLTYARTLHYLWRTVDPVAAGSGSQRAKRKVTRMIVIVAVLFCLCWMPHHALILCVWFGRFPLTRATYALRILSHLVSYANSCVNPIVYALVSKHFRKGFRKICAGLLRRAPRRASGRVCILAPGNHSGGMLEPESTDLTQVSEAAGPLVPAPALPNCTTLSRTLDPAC
Source text: as §1

GALR2 [2] = target: T1, GALR2; assay: Calcium assay, CHO GalR2 cells (FLIPR); conditions: mean +/− standard deviation; for GalR2 Calcium, mean pEC50: Table 2, n ≥ 3; for GalR2 activity (calcium assay), warhead length: Table 6
Experimental: CHO GalR2 cells were plated at 10,000 cells per well in black clear bottom plates (corning, USA) and incubated overnight at 37° C. with 5% CO2. […] Ligands were prepared at a 5× concentration and added to cells using the FLIPR (Molecular Devices, USA). Baseline was typically 20 seconds before ligand addition. […] For analysis, fluorescence was normalised to pre-addition baseline and peak fluorescence used for all quantification.
In brief, a panel of functional cell-based microtiter-plate assays were developed using recombinant GalR1 and GalR2 receptors stably expressed in CHO cells. […] Nominally this equated to 10 serial (~3fold) dilutions with highest concentrations of 10-1 μM as appropriate.
In addition to generating both potency and efficacy estimates, the latter being expressed relative to native galanin, both G-protein and non-G-Protein signalling pathways were measured.

[3] = highest concentration tested 10 μM

Substance: Gal2-13FC: galanin 2-13, AEAAAKEAAAKA linker, human IgG1 FC; SEQ ID NO: 7
- GalR2 Beta Arrestin, mean pEC50 (GALR2 [1]): 6.7 +/− 0.2
- activity at GalR3 (in words) (GALR3): no measurable activity
- Cynomolgus GalR2 activity (cynomolgus GalR2): 7.7 +/− 0.4
- Mouse GalR2 activity (mouse GalR2): 6.4 +/− 0.3
- GalR2 Calcium, mean pEC50 (GALR2 [2]): 6.3 +/− 0.3
- GalR2 activity (calcium assay), warhead length (GALR2 [2]; [3]): 6.4 +/− 0.1
- GalR2 activity (calcium assay), linker variants (GALR2 [2]; Table 7, highest concentration tested 10 μM): 6.4 +/− 0.1

Substance: Gal2-30FC: galanin 2-30, AEAAAKEAAAKA linker, human IgG1 FC; SEQ ID NO: 28
- GalR2 Beta Arrestin, mean pEC50 (GALR2 [1]): 7.3 +/− 0.2
- activity at GalR3 (in words) (GALR3): no measurable activity
- Cynomolgus GalR2 activity (cynomolgus GalR2): 8.4 +/− 0.1
- Mouse GalR2 activity (mouse GalR2): 7.0 +/− 0.1
- GalR2 Calcium, mean pEC50 (GALR2 [2]): 6.6 +/− 0.3
- GalR2 activity (calcium assay), warhead length (GALR2 [2]; [3]): 6.8 +/− 0.1
